Target: Polα-primase, recombinant (Insect PP) (Homo sapiens, UniProt P09884;Q14181;P49642;P49643 1-1462;1-598;1-420;1-509)
Test: EMSA; Kd,app similar to CST-Polα-primase, value only in figure; complex dissociates during electrophoresis; CST EMSA: 20 mM HEPES-NaOH pH 8.0, 150 mM NaCl, 2 mM MgCl2, 0.2 mM EGTA, 0.1% NP-40, 10% glycerol, 1 mM DTT, 2 h on ice, 0.7% agarose 1x TBE gel at 4 °C; POT1-TPP1N EMSA: C-strand synthesis buffer, 30 min at 30 °C
Settings: protein: recombinant; copies: 1;1;1;1; label: 5'-32P; folds into G-quadruplex in KCl and NaCl, not LiCl

Polα-primase, recombinant (Insect PP), sequence (P09884 whole entry, chain 1 of 4): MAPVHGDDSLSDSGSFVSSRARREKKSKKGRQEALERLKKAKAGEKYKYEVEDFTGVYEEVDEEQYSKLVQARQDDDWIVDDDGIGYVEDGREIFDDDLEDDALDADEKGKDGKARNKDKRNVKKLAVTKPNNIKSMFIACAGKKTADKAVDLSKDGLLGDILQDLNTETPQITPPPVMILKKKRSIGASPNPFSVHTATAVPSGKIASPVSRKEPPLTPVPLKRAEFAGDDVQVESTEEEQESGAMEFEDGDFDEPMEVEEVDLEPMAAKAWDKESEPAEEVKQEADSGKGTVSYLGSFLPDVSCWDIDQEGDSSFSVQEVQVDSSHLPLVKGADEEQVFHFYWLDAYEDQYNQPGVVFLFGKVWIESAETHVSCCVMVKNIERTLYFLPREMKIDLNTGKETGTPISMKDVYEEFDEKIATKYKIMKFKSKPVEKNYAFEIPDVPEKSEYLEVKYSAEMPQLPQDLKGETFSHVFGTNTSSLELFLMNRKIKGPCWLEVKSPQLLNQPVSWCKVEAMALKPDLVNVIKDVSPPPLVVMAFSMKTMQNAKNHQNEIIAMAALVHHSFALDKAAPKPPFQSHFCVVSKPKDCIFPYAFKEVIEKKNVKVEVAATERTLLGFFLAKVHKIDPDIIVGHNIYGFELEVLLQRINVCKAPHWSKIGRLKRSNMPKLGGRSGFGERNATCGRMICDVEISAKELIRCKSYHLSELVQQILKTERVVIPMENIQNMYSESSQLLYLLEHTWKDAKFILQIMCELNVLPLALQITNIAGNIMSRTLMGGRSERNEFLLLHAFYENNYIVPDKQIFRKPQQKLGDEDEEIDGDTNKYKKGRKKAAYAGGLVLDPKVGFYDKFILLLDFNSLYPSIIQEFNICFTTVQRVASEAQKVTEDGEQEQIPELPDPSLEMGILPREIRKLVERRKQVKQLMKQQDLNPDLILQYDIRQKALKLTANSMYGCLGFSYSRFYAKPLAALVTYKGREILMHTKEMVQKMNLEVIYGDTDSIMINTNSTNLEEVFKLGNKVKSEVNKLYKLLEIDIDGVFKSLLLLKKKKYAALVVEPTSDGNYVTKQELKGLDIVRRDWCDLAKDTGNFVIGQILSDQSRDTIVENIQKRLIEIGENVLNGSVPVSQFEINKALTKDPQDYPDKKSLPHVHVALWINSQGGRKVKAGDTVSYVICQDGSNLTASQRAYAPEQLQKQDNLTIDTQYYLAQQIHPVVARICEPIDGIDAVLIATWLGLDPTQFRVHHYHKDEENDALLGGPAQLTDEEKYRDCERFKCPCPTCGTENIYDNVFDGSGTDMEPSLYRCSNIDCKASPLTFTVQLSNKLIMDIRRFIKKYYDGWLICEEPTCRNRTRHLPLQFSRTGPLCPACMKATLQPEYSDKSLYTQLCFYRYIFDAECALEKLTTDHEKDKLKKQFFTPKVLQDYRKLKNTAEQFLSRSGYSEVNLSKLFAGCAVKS
Polα-primase, recombinant (Insect PP), sequence (Q14181 whole entry, chain 2 of 4): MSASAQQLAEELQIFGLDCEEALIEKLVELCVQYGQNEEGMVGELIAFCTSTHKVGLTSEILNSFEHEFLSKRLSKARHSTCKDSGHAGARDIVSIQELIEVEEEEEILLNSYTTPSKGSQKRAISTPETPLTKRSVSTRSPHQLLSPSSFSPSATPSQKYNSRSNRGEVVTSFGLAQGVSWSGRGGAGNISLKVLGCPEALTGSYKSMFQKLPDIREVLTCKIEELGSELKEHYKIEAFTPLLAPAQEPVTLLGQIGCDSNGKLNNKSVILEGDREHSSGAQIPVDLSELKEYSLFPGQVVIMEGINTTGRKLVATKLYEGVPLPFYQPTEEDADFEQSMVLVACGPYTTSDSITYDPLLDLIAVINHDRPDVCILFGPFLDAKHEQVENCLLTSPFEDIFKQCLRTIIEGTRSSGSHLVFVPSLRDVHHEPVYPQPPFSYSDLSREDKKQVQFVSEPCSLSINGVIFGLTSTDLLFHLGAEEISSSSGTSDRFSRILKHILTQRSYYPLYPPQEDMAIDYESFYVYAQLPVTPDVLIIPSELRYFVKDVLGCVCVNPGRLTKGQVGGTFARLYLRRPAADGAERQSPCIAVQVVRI
Polα-primase, recombinant (Insect PP), sequence (P49642 whole entry, chain 3 of 4): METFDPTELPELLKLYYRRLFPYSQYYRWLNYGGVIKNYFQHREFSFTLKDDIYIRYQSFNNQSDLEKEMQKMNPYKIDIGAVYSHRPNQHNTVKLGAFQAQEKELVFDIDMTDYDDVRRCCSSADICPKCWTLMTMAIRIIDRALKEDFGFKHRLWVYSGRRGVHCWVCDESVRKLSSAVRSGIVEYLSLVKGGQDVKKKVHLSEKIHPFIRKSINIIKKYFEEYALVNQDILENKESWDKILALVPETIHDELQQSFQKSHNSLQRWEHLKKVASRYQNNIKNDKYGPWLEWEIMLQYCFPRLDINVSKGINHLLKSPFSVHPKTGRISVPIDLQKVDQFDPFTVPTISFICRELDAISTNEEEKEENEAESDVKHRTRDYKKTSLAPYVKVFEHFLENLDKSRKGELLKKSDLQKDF
Polα-primase, recombinant (Insect PP), sequence (P49643 whole entry, chain 4 of 4): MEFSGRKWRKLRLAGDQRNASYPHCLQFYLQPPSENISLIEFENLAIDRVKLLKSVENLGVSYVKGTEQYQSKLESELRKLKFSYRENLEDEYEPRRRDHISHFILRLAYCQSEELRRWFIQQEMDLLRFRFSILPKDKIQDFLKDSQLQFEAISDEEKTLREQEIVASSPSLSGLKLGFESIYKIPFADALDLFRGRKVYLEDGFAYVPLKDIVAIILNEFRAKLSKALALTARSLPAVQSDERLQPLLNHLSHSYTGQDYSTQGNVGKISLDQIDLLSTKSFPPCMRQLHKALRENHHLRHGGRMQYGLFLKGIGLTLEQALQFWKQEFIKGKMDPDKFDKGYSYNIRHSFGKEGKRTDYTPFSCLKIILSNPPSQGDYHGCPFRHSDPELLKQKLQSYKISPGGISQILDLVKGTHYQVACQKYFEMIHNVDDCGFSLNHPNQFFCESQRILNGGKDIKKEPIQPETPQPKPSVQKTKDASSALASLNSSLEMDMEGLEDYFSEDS

B1: 9xTEL (ssDNA)
DNA: TTAGGGTTAGGGTTAGGGTTAGGGTTAGGGTTAGGGTTAGGGTTAGGGTTAGGG
B1: binds.
